From patent publication US20240116987A1, “POLYPEPTIDE INHIBITORS OF LACTATE DEHYDROGENASE ACTIVITY FOR USE IN CANCER THERAPY” (UNIVERSITÉ CATHOLIQUE DE LOUVAIN, priority 2021, published 2024)

Legend:
[1] = NanoDSF thermal denaturation of LDH-H variants; type: physicochemical, human; conditions: for Ratio 350/330 nm (initial): nanoDSF fluorescence ratio; for Tm: means ± SEM, n=6
Experimental: NanoDSF was performed following previously described by Thabault et al. (see above). • a) Variant evaluation
Solutions of proteins (LDH-H, LDH-Htr, or variants), stored in a 50 mM sodium phosphate, 100 mM NaCl and 20% glycerol, pH 7.6, were evaluated on a Tycho NT.6 device (NanoTemper Technologies®) using concentrations […]. According to standard manufacturer's procedures, samples were poured into capillaries and heated up to 95° C. in 3 min, while following fluorescence emission at 330 and 350 nm. Melting temperatures were extracted from the derivative of the 350/330 nm fluorescence ratios upon increasing temperature. • b) Peptide evaluation

[2] = Intrinsic tryptophan fluorescence spectra; type: physicochemical, human; conditions: 1.3 μM, λexc 286 nm, n=6
Experimental: (§1) All spectrophotometric experiments were performed with opaque 96-well plates using a Spectramax m2e spectrophotometer (Molecular Devices) following previously described in Thabault et al. (see above).
(§2) Intrinsic fluorescence assays: full tryptophan fluorescence spectra were recorded using an excitation wavelength of 286 nm and recording the emission spectra from 320 to 400 nm at room temperature. The raw fluorescence of each experiment was subtracted to a corresponding control experiment without the protein. Experiments were performed in a 50 mM sodium phosphate and 100 mM NaCl, pH 7.6, buffer. For dissociation in subunits, increasing amounts of guanidinium-HCl ranging from 0.3 M to 2 M were put in contact with the studied proteins (1.3 μM), and fluorescence spectra were recorded afterwards.

[3] = Chemical denaturation with guanidinium-HCl followed by intrinsic fluorescence; type: physicochemical, human; conditions: protein 1.3 μM, means ± SEM, n=6
Experimental: as §1, §2

[4] = molecular target: T1, dimeric LDH-Htr (Homo sapiens, UniProt P07195); assay: NMR WaterLOGSY with dimeric LDH-Htr; type: binding; conditions: LDH-Htr 15 μM, LP-22 400 μM
T1 construct: using the model of dimeric LDH (LDH-Htr); made in house; host or cells: E. coli Rosetta (DE3)
Experimental: Human LDH-H (full length and truncated)-6His proteins for ^1D NMR were expressed and purified from E. coli, as described above. All experiments were performed on an […] system equipped with a broadband cryoprobe (Bruker®) following a previously described in Thabault et al. (see above).
For WaterLOGSY NMR studies, samples were prepared in 10% D2O containing 50 mM sodium phosphate buffer, pH 7.6, and 100 mM NaCl. The concentration of LDHs was ranging from 15 to 20 μM of monomer. Ligand binding was detected using a WaterLOGSY ephogsygpno.2 avance-version sequence with a 1 s mixing time. Water signal suppression was achieved using an excitation-sculpting scheme, and a 50 ms spinlock was used to suppress protein background signals.

[5] = molecular target: tetrameric LDH-5 (Homo sapiens, UniProt P00338); assay: NanoDSF thermal destabilization of tetrameric LDH-5 by peptide; type: binding
Experimental: (§3) NanoDSF was performed following previously described by Thabault et al. (see above). • a) Variant evaluation Solutions of proteins (LDH-1, LDH-5 or LDH-Htr) with peptides were evaluated on a Tycho NT.6 device (NanoTemper Technologies®). Evaluations were performed in a 50 mM sodium phosphate and 100 mM NaCl pH 7.6 buffer. According to standard manufacturer's procedures, samples were poured into capillaries and treated as above.

[6] = molecular target: T1, dimeric LDH-Htr; assay: NanoDSF thermal shift of dimeric LDH-Htr with peptide; type: binding; conditions: LDH-Htr 15 μM, polypeptide 500 μM, n=3
Experimental: as §3

[7] = molecular target: T2, LDH-Htr (Homo sapiens, UniProt P07195); assay: Microscale thermophoresis (MST) binding to labelled LDH-Htr; conditions: 1.5 s MST on time, n=3, labelled LDH-Htr 100 nM
T2 construct: using the model of dimeric LDH (LDH-Htr); made in house; host or cells: E. coli Rosetta (DE3)
Experimental: MST measurements were performed on a Nanotemper® Monolith NT.115 instrument (NanoTemper Technologies®) using Red-dye-NHS fluorescent labelling. LDH-Htr purified to homogeneity was labelled with the Monolith Red-dye-NHS 2nd generation labelling dye (Nanotemper Technologies®), according to the supplied protocol. Measurements were performed in 50 mM sodium phosphate, pH 7.6, and 100 mM NaCl containing 0.01% Tween-20 in standard-treated capillaries (NanoTemper Technologies®). The final concentration of proteins in the assay was 100 nM. Ligands were titrated in 1:1 dilutions following manufacturer's recommendations. Experiments were performed in triplicates using 40% LED power, high MST power, […] and Laser off time 3 s. Poypeptides were evaluated for their thermophoretic pattern, and Kd's were extracted from raw data at a 1.5 s MST on time following the manufacturer's instructions.

T1 sequence (P07195 21-334): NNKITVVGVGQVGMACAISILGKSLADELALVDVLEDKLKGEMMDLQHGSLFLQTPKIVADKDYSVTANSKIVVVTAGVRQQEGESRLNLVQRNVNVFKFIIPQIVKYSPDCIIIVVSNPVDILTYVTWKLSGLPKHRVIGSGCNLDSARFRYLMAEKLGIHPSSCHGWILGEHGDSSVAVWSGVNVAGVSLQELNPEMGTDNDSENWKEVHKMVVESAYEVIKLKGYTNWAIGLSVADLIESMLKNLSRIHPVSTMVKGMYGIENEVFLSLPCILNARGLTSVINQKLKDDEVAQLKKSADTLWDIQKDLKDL
T2 sequence (P07195 21-334): as above

Compound	EC50 [3]	WaterLOGSY saturation transfer with dimeric LDH-Htr [4]	Destabilizing effect on LDH-5 compared to LDH-1 ([5]; nanoDSF, tetrameric LDH-5 vs LDH-1)	ΔTm of dimeric LDH-Htr (stabilization) [6]	Kd [7]	EC50 ([5]; LDH-5 300 nM, n=3, read-out: EC50 of ΔTm (destabilization) of tetrameric LDH-5)	NanoDSF denaturation pattern [1]	Ratio 350/330 nm (initial) [1]	Tm ([1]; nanoDSF)	Tryptophan fluorescence intensity compared with LDH-1 [2]	Tm difference versus LDH-Htr ([1]; nanoDSF)
E62A: LDH-H recombinant alanine variant E62A of SEQ ID NO: 2	< 100000 µM						denaturation patterns comparable to dimeric LDH-Htr	0.95	58.9 ± 0.1 °C	decays in fluorescence intensity characteristic of the dimeric forms of LDHs	
L71A: LDH-H recombinant alanine variant L71A of SEQ ID NO: 2	< 100000 µM						a lower initial ratio and a red-shift	0.90	67.1 ± 0.1 °C	not L71A	10 °C
F72A: LDH-H recombinant alanine variant F72A of SEQ ID NO: 2	< 100000 µM						denaturation patterns comparable to dimeric LDH-Htr	0.94	53.9 ± 0.1 °C	decays in fluorescence intensity characteristic of the dimeric forms of LDHs	
LDH-Htr: dimeric model of LDH-H obtained by truncating its N-terminal tetramerization domain [reference compound]	< 100000 µM						concentration-dependent destabilization	0.87	57.5 ± 0.1 °C		

The next lines start with results.

EC50 [3]	WaterLOGSY saturation transfer with dimeric LDH-Htr [4]	Destabilizing effect on LDH-5 compared to LDH-1 ([5]; nanoDSF, tetrameric LDH-5 vs LDH-1)	ΔTm of dimeric LDH-Htr (stabilization) [6]	Kd [7]	EC50 ([5]; LDH-5 300 nM, n=3, read-out: EC50 of ΔTm (destabilization) of tetrameric LDH-5)	Compound	NanoDSF denaturation pattern [1]	Ratio 350/330 nm (initial) [1]	Tm ([1]; nanoDSF)	Tryptophan fluorescence intensity compared with LDH-1 [2]	Tm difference versus LDH-Htr ([1]; nanoDSF)
	undergoes a saturation transfer	higher destabilizing effect	2.8 °C	156 µM		CSCC[C@H](NC(=O)[C@H](CCC(=O)O)NC(=O)CNC(=O)[C@H](CCCCN)NC(=O)[C@H](CC(C)C)NC(=O)[C@H](CCCCN)NC(=O)[C@H](CC(=O)O)NC(=O)[C@H](CCC(=O)O)NC(=O)[C@@H](N)CC(C)C)C(=O)N[C@@H](CCSC)C(=O)N[C@@H](CC(=O)O)C(=O)N[C@@H](CC(C)C)C(=O)N[C@@H](CCC(N)=O)C(=O)N[C@@H](Cc1c[nH]cn1)C(=O)NCC(=O)N[C@@H](CO)C(=O)N[C@@H](CC(C)C)C(=O)N[C@@H](Cc1ccccc1)C(=O)N[C@@H](CC(C)C)C(=O)N[C@@H](CCC(N)=O)C(=O)N[C@H](C(=O)N1CCC[C@H]1C(N)=O)[C@@H](C)O [LP-22]					
				240 µM	262 µM	Ac-GEMMDLQHGSLFLQTP-NH2 [GP-16]					
